From doi:10.1101/2024.09.16.613291 come the findings set out here.

In experiment [1] the target is PP2A:B55 holoenzyme (PP2Aa:B55:PP2Ac), purified, active, methylated on PP2Ac L309 (UniProt P30153).
Experiment [2] shares this target. The source holds these as a separate data set.

Where two headings read alike, the source gives them in different places.

UniProt P30153, sequence (P30153 9-589, chain 1 of 3): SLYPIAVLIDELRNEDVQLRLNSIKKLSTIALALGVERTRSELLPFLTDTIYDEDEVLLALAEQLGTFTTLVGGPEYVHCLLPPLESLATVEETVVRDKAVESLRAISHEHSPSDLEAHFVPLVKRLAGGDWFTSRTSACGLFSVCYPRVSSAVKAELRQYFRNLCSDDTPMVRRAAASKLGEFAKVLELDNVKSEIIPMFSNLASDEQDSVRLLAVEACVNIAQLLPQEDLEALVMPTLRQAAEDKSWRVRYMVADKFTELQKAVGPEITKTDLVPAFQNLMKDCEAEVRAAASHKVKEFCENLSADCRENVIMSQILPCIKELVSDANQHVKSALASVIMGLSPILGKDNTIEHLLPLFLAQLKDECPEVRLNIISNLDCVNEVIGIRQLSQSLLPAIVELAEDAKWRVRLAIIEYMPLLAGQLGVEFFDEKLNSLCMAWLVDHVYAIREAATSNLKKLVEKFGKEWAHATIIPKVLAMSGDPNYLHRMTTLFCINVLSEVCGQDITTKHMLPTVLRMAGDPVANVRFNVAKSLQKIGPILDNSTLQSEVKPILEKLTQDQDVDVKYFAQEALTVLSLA
UniProt P30153, sequence (P63151 whole entry, chain 2 of 3, further chain): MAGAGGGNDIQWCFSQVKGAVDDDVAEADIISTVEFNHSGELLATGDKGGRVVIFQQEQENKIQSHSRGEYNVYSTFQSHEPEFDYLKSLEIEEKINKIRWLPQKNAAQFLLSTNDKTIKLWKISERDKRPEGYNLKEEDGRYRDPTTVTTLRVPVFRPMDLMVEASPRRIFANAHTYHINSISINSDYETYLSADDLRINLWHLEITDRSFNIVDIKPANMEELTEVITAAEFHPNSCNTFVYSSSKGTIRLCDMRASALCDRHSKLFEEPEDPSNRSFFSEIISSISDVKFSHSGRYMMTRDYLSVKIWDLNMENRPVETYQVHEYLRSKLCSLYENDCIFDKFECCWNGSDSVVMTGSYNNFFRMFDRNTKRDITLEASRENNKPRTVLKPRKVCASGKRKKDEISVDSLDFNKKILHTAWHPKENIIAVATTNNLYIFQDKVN
UniProt P30153, sequence (P67775 whole entry, chain 3 of 3, further chain): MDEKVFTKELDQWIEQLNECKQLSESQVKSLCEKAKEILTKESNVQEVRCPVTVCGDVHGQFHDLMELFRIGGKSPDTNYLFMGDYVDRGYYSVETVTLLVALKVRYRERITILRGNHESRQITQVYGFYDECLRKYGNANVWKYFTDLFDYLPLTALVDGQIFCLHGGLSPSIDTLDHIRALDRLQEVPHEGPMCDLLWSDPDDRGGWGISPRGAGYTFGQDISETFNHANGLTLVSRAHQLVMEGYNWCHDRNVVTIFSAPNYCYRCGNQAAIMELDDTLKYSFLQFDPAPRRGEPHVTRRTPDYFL

B1: Eya3 PP2A:B55 interaction domain (aa 62-108) with C-terminal EE (domain or fragment)
chain: RSSNDYTSQMYSAKPYAHILSVPVSETAYPGQTQYQTLQQTQPYAVYEE
As for B1, the IC50 of inhibition of PP2A:B55 (1 nM) dephosphorylation of DiFMUP (50 uM) in experiment [1] was determined as 1100 nM.

B2: p107 interdomain region (residues 612-687) (domain or fragment)
chain: MPMSPLMHPRVKEVRTDSGSLRRDMQPLSPISVHERYSSPTAGSAKRRLFGEDPPKEMLMDKIITEGTKLKIAPSS
Consider B2, for which the IC50 of inhibition of PP2A:B55 (1 nM) dephosphorylation of DiFMUP (50 uM) in experiment [2] was found to be 245 nM.
